This is an account of results in the nanobody polyreactivity screen of Harvey et al. (2022).

The data set in a line: yeast display, Sf9 membrane polyspecificity reagent, FACS + sequencing; frameworks hold sequencing errors. In outline:
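Polyreactivity labels are assigned by the sorting gate from which each nanobody was recovered. The gates were low and high (top ~1%), set on anti-HA fluorescence for expression and streptavidin fluorescence for reagent binding. Before sorting, galactose-induced (36–48 hours) yeast display cells were stained for 1 hour at 4 °C with 10% biotinylated, detergent-solubilized Sf9 membrane reagent.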
On to “QVQLVESGGGLVQAGGSLRLSCAASGRTFTKYAMGWYRQAPGKERELVAAISNSGGSTFYADSVKGRFTISRDNAKNTVYLQMNSLKPEDTAVYYCAVDLGDTQYVPFDYWGQGTQVTVSS”, for which the “polyreactivity (PSR sort gate)” value was “low polyreactivity”. The result for “QVQLVESGGGLVQAGGSLRLSCAASGRIFQLYAMGWYRQAPGKERELVAANAWSGGSTYYADSVKGRFTISRDNAKNSVYLQMNSLKPEDTAVYDCAVEGYHGSRRYYYWGQGTQVTVSS” reads “high polyreactivity”.

“QDQLVESAGGLVQAGGSLRLSCAASASTFIVYAMGWYRQAPGKEREFVATINHSGDSTYYADSVKGRFTISRDNAKNTVYLQMNSLKPEDTAVYYCNATVVFVQYVDYDYWGQGTLVTVSS”: the “polyreactivity (PSR sort gate)” value is listed as “low polyreactivity”. The result for “QVQLVESGGGLVQAGGSLRLSCAASGFTFNVNAMGWYRQAPGKERELVATITWSDGSTRYADSVKGRFTISRDNAKNTVYLQMNSLKPEDTAVYYCAAESSECTSGDYDYWGQCTQVTVSS” reads “low polyreactivity”; that for “QVQLVESGGGLVQAGGSLRLSCAASGFTFHWYAMGWYRQAPGKERELVAAISSGSSTYYADSVKGRFTISRDNAKNTVYLQMKSLKPEDTAVYYCNVVLYKYSPTESWITYDYWGQGTQVTVSS”, “low polyreactivity”.

Take “QVQLVESAGGLVQAGASLRLSCAASGSTFYYYAMGWYRQAPGKERELVAAIDWDSGSTYYADSVKGRFTISRDNAKNTVFLQMNSLNPEDTAVYYCAADSWFSDFDYWGQGTQETVSS”: the “polyreactivity (PSR sort gate)” value was “high polyreactivity”. With “QVQLVESGGGLVQAGGSLRLSCAASGFTFPIYAMGWSRQAPGKEWELVAAISKGGARTYYADSVKGRFTISRDNAKNTVYLQMNSLNPEDTAVYYCAALGPGGWYDYWGQGTQVTVSS”, the “polyreactivity (PSR sort gate)” value was “high polyreactivity”. The result for “QVQLVESGGCLVQAGCSLRLSCAASGSTLWWYDMGWYRQAPGKERELVAAINSGGSTNYADSVKGRFTISRDNAKNTVYLQMNSLKAEDTAVYYCNTDGEVTYDYWGQGTQVTVSS” reads “low polyreactivity”; that for “QVQQVESGGGLVQAGGSLRLSCAATGIIFNDYHMGWYRQAPGKERELVAAINYSGGSTYYADSVKGRFTISRDNAKNTVYLQMNSLKPEDTAVYYCAADNAVWEYDYWGQGTQVTVSS”, “low polyreactivity”. On to “QVQLVESGGGLVQAGGSLRLSCAASGSIFPYNVMGWYRQTPGKERELVADIRSDGSTTYADSVKGRFTISRDNAKNTVYLQMNSLKPEDTAVYDCAAVWTYLYSYSLWLEYDYWGQGTQVTVSS”, for which the “polyreactivity (PSR sort gate)” value was “low polyreactivity”.

Regarding “QVQLVESGGGLVQAGGSLRLSCAASGRTFPYYAMGGYRKAPGKERELLASISRGGNTNYADSVKGRFTISRDNAKNTVYLQMNSLKPEATAVYYCAADYYLAYGSRRGGYWGQGTQVTVSS”, the “polyreactivity (PSR sort gate)” value is recorded as “high polyreactivity”. The result for “QVQLVESGGGLVQAGGSLRLSCAASGSTYAIYAMGSYRQAPGKERELVASISGGSTNYADSVKGRFTISRDNAKNTVYLQMNSLKPEDTAVYYCAARGALHHWYRYDYWGQGTQVTVSS” reads “low polyreactivity”; that for “QVQLVESGGGLVQAGGSLRLSYAASGSTFRVYAMGWYRPATGKERELVAAISRSGGRTYYADSVKGRFTISRDNAKNTVYLQMNSLKPEDTAVYYCAADYKYTAVSDDYWGQGTQVTVSS”, “high polyreactivity”. The result for “QVQLVESGGGLVQAGGSLRLSCAACGLTYNANAMGWYRQAPGKERELVAAIDWIGGSTYYADSVKGRFTISRDNAKNTVYLQMNSLKPEDTAVYYCASRSKRRNYDYWGQGTQVTVSS” reads “high polyreactivity”; that for “QVQLVESGGGLVQAGGSLRLSCAASGLTFGVNAMGWYRQAPGKERELVAVITSGGNTYYADSVKGRFTISRDNAKNTVYLQMNSLKPEDTAVYYCAAYGRASWERDYWGQGTQVTVSS”, “low polyreactivity”.

“QVQLVESGGGLVQAGGSLRLSCAASGRTFRRYAMGWYRQAPGKERELVAAISRSGGSTSYADSVKGRFTISRDNAKNTVYLQMKSLKPEDTAVYYCAVEVASYDRRPSEYYWGQGTQVTVSS”: the “polyreactivity (PSR sort gate)” value is recorded as “high polyreactivity”.

Take “QVQLVESGGGLVQAGGSLRLSCSPSGSILYGNAMGWYRQAPGKERELVAAITSGGSTYYADSVKGRFTISRDNAKNTVYLQMNSLKPEDTAVYYCNTVWATKGDYWGHGTQVTVSS”: the “polyreactivity (PSR sort gate)” value is listed as “high polyreactivity”. With “QVHLQDSGGGLVKAGGSLRMSCAASGYIFGSGSMGWFRQAPGKERELVATINNGSSTYYADSVKGRFTISRDNAKNNVYLQMNSLKAEATAVYYCAVYLYRLTFFYYWGQGNQVTVSS”, the “polyreactivity (PSR sort gate)” value is listed as “high polyreactivity”. The result for “QVQLVESGGGLVQARGSLRLSCAASGTIFSSYAMGWYRQAPGKERELVAAIRWTGGSTYYADSVKGRFTISRDNAMNTVFLEMNSLKPEDTAVYFCTAEYWIDWGYDYWGQGTQVTVSS” reads “low polyreactivity”. The value for “QVQLVESVGGLVQAGGSLRLSCAASGLNFSYYAMGWYRQAPGKERELVAAIDWISGSTYYADSVKGRFTISRDNAKNTVYLQMNSLKPEDTAVYYCAAYGSFWYAGFGYWGQGTQVTVSS” was “low polyreactivity”; that for “QDQLVESGGGLVQAGGSLRLICSASGIILGSNAMGWYRQAPGKERELVAAITSSGSTYYADSVKGRFTISRDNAKNTVYIQMNSLKPEDTAVYYCATGWLRRAVRFNYWGQGTQVTLSS” was “high polyreactivity”. The result for “QVQLVESGGGLVQAGGSLRLSCAASGSTLISYTMGWYRQAPGKERELVAAITSAVTTYYADSVKGRFTISRDNAKNTVYLQMNSLKPEDTAVYYCNTYPFKTLPYRYPRGDYWGQGTQVTVSS” reads “low polyreactivity”; that for “QVQLVESGGGLVQAGGSLRLSCAASGYIFEVNAMGWYRQAPGKERELVATIDTSSGSTNYADSVKGRFTISRDNAKNTVDLQMNSLKPEDTAVYYCAADDETVFLQDDYWGQGTQVTVSS”, “low polyreactivity”.

Consider “QVQLVQSGGGLVQAGGSLRLSCAASGRTFPIYAMGWYRQAPWKERELVAAITRGGRTNYADSVMGRFTISRDNAKNTVYLQMNSLKPEDTAVYYCDARTYGTYLYAEYDYWGQCTQVTVSS”, for which the “polyreactivity (PSR sort gate)” value is recorded as “high polyreactivity”. Regarding “QVQLVESGGGLVQAGGSLRLRCAASGNIFDRYAMGWYRQAPGKERELVAAISWSDGTTYYADSVKGRFTISRDNAKNTVYLQMNTLKPEDTAVYNCAGVYTYPLGYYHYTYDDWGQGTQVSVSS”, the “polyreactivity (PSR sort gate)” value was “low polyreactivity”. As for “QVQLVESRGGLVQAGGTLRLSCAPSGLTSYGNTRGWDIPAPGKERELVAAISKRGTSTYYADSVKGRFTISRDNAMNTVYLQMNSLKPEDTAVYYCAAAYRGREVEYISWGQGTQVTVSS”, the “polyreactivity (PSR sort gate)” value is listed as “high polyreactivity”.

On to “QVQLVESVGGLVQAGGSLRLSCAATRSIFKIMRWYRQAPGKERELVAAISSSVGNTYYADSVKGRFTISRDNAKNTVYLQMNSLKPEDTAVYYCAAQSKYYQYYSWGQGTQVTVSS”, for which the “polyreactivity (PSR sort gate)” value is “high polyreactivity”. The value for “QVQLVESGGGLVQAGGSLRLSCAASGSILQVYAMGWYRQAPGKERELFADINYTTGSTYYADSVKGRFTISRDNAKNTVYLQMNSLKPEDTAVYYCAKDFGFQSDSWGQGTQVTVSS” was “low polyreactivity”; that for “QVQLVESGGGLVQAGGSLRLSCAASGNTFYPYAMGWYRQAPGKERELVAAISFSSGSTYYADSVKGRFTISRDNAKNTVYLQMNSLKPEETAVYYCAAEANGNFAWWEYYYWGQGTQVTVSS” was “high polyreactivity”; that for “QVQLVESGGGLVQAGGSLRLSCAASVRTYGFNTMGSYRQAPGKERELVAANTTSGGSTYYADSVKGRFTISRDNAKNTVYLQMNSLKPDDSAVYYCAKDYYSKHFPIYEYWGQGTQVTVSS” was “low polyreactivity”. The result for “QVQLVESGGGLVQAGGSLRLSCAASGRIFYRYAMGWYRQAPGKERELVATISSGGSTNYADSVKGRFTISRDNAKNTVYLQMNSLKPEDTAVYYCARQSLRYSYVSRDYWGLGTQVTVSS” reads “low polyreactivity”; that for “QVQLVESGGGLVQAGGSLRLSCAASGGTFYLNAMGWYRQAAGKERELVAGISWGGGRTYYADSVKGRFTISRDNAKNTVYLQMNSLKPEDTAVYYCAAGAWRGPYSGYYYWGQGTQVTVSS”, “low polyreactivity”.

As to “QVQLVESWGGLVQAGGSHRLSCDASGRIFTRNAMGWYRQAHGKERELVAAISYDCGSTYYADSVKVRFTISRDNAKNTVYLQMNSLKPEDTAVYYCATDLYLHGYEYWGQGTQVTVSS”, the “polyreactivity (PSR sort gate)” value is “high polyreactivity”. The value for “QVQHEESAGGLVQAGGSLRLSCAASGSTIHPYSMGWSRQAPGKERELVAAITWGGGSTYYADSVKGRFTISRDNAKNTVYLQMNSLKPEDTAVYYCNSYTLYWPDYDYWGQGTQVTVSS” was “low polyreactivity”; that for “QVQIVESGGGLVQAGGSLRLSCAASGFTFGHYAMGWYRQAPGKERELVAAISYSGVRTYYADSVKGRFTISRDNAKNTVYLQMNSLKPEDTAVYYCNKYPAHYQTRRYDYWGHGTQVTVSS” was “high polyreactivity”; that for “QVQLVESGGGLVQAGGSLRLSCAASGSIFGLYAMGWYRQAPGKEREVFADITIGGSTYYADSVKGRFTISRDNAKNTVYLQMNSLKPEDTAVYYCASRPGSWYPSVPSYNYWGQGTQVTVSS” was “low polyreactivity”. As to “QVQLVESGGGLVQAGGSLRLSCAASGRIFGAYAMGWYRQAPGKERELVATITSDGSTDYADSVKGRFTISRDNAKNTVYLQMNSLKPEDTAVYYCAVAYLWRPYDFREFDYWGQGTQVTVSS”, the “polyreactivity (PSR sort gate)” value is on record as “low polyreactivity”.

As to “QVQLVESGGGLVQAGGSLRLSCAASGGTFITNAMGWYRKAPGKERELVAAITSGGRTTYADSVKGRFTISRDNAKNTVDLQMNSLKPVDTAVYYCAADHVYSSTYFLDDYWGQGTQVTVSS”, the “polyreactivity (PSR sort gate)” value is reported as “low polyreactivity”. The value for “QVLLVESGGGLVQAGGSLRISCAASGRISSRNAMGWYRQAPGKERELVAGITSGGSTNYADSLKGRFTISRDNAKNTVYLQMNSLKPEDTAVYYCAKRSRTYRYGYDYWGQGTQVTVSS” was “high polyreactivity”; that for “QVQLVESGGGLVQAGGSLRLSCAASGRTFVNYAMGWYSQAPGKERELVAAISWTDDDTYYADSVKGRFTISRDNAKNTVYLQMNSLKPEDTAVYYCATDYDSYDYWGQGTQVTVSS” was “low polyreactivity”. Consider “QVQLVESGGGLVQAGGSLRLSCAASGRIFITNAMGWYRPAPGKERELVAVISYIGGRTYYADSVKGRFTISRDNAKNTVYLQMNSLKPEDTAVYYCAARRSRPTYFSTGVNYWGQGTQVTVSS”, for which the “polyreactivity (PSR sort gate)” value is “high polyreactivity”.
